From KR20220081857A (dated 2022)

Target: 인간 TNFα (ACROBiosystems TNF-H5228) (human, UniProt P01375 77-233)
Experiment: cell-based or functional assay

Sequence of 인간 TNFα (ACROBiosystems TNF-H5228) (P01375 77-233 limits assumed): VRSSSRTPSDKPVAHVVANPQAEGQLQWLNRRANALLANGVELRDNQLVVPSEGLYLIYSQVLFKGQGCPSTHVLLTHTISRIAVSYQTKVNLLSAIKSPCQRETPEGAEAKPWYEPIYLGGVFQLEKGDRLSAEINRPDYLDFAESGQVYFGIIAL

Binder | IC50 (nM), TNFα blockade assay [nM]
이중 특이성 항체 I3F07-TNFαi HC (bispecific antibody) heavy: not shown light: DIVLTQSPLSLPVSLGDQASISCRSSQSLVHSNGNTYLHWYLQKPGQSPKLLIYKVSNRFSGVPDRFSGSGSGTDFTLKISRVEAEDLGVYFCSQSTHVPPTFGGGSKLEIKRTVAAPSVFIFPPSDEQLKSGTASVVCLLNNFYPREAKVQWKVDNALQSGNSQESVTEQDSKDSTYSLSSTLTLSKADYEKHKVYACEVTHQGLSSPVTKSFNRGEC | 0.055

Target: T1, 인간 OX40L 단백질 (OX40L-his; ACROBiosystems Cat# OXL-H52Q8) (human, UniProt P23510 51-183)
T1 sequence: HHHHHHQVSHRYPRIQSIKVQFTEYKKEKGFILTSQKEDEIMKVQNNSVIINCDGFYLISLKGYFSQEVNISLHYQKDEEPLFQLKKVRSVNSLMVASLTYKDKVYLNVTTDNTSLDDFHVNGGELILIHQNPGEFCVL
Experiment: cell-based or functional assay

Binder | IC50 (nM), OX40L blockade assay [nM]
이중 특이성 항체 I3F07-TNFαi HC (bispecific antibody) heavy: not shown light: DIVLTQSPLSLPVSLGDQASISCRSSQSLVHSNGNTYLHWYLQKPGQSPKLLIYKVSNRFSGVPDRFSGSGSGTDFTLKISRVEAEDLGVYFCSQSTHVPPTFGGGSKLEIKRTVAAPSVFIFPPSDEQLKSGTASVVCLLNNFYPREAKVQWKVDNALQSGNSQESVTEQDSKDSTYSLSSTLTLSKADYEKHKVYACEVTHQGLSSPVTKSFNRGEC | 0.91

Target: T1, 인간 OX40L 단백질 (OX40L-his; ACROBiosystems …)
Experiment: cell-based or functional assay
Remark: another data set of the same source

Binder | IC50 (nM), OX40L blockade assay [nM] | IC50 (μg/mL), OX40L blockade assay [µg/mL]
이중 특이성 항체 02C09-TNFαi HC (bispecific antibody) heavy: not shown light: DIQMTQSPSSLSASLGDRVTITCRASQSIGRWLAWYQQKPGNAPKLLIYKATILESGVPSRFSGSGSGTEFALTISSLQPDDFSAYYCQQYNSYPYTFGQGTKLEIKRTVAAPSVFIFPPSDEQLKSGTASVVCLLNNFYPREAKVQWKVDNALQSGNSQESVTEQDSKDSTYSLSSTLTLSKADYEKHKVYACEVTHQGLSSPVTKSFNRGEC | 0.59 | 0.117
이중 특이성 항체 Hu3F07-TNFαi HC (bispecific antibody) heavy: not shown light: DIVMTQSPLSLPVTLGEPASISCRSSQSLVHSNGNTYLHWYLQKPGQSPQLLIYKVSNRFSGVPDRFSGSGSGTDFTLKISRVEAEDVGVYYCSQSTHVPPTFGGGTKLEIKRTVAAPSVFIFPPSDEQLKSGTASVVCLLNNFYPREAKVQWKVDNALQSGNSQESVTEQDSKDSTYSLSSTLTLSKADYEKHKVYACEVTHQGLSSPVTKSFNRGEC | 0.21 | 0.041
항 OX40L 항체 Hu3F07 (antibody, human IgG4 S228P, kappa, V domains shown) VH: QVQLVQSGAEVKKPGASVKVSCKASGFTFPDYWMHWVRQAPGQGLEWMGEIDPPNGRTNYNEKFKSRVTMTRDTSISTAYMELSRLRSDDTAVYYCARGIYYVDYWGQGTTVTVSS VL: DIVMTQSPLSLPVTLGEPASISCRSSQSLVHSNGNTYLHWYLQKPGQSPQLLIYKVSNRFSGVPDRFSGSGSGTDFTLKISRVEAEDVGVYYCSQSTHVPPTFGGGTKLEIKR | 0.2 | 0.03
항 OX40L 항체 10H07 (antibody, human IgG4 S228P, kappa, V domains shown) VH: QVYLQQSGAELVKPGASVKLSCKASGYTFTDYWMHWVKQRPGQGLEWIGEIDPGNGRTNYNEKFKNKATLSVDKSSNTAYMQFSSLTSEDSAVFYCASEGAGRGFPYWGQGTLVTVSA VL: DVVLTQTPLSLPVSLGDQASISCRSSQSLVHSNGNTYLHWYLQKPGQSPKLLIYKVSNRFSGVPDRFSGSGSGTDFTLKISRVEAEDLGVYFCSQSTHVPWTFGGGTKLEIKR | 0.41 | 0.061
항 OX40L 항체 21G07 (antibody, human IgG4 S228P, kappa, V domains shown) VH: QVQLQQSGAELVKPGASVKLSCKASGYTFTNYWMQWVKQRPGQGLEWIGEIDPSDGRTNYNEKFKNKATLTVDRSSSTAYIKLSSLTSEDSAVYYCAREVSLRSMDYWGQGTSVTVSS VL: DIVLTQSPLSLPVSLGDQASISCRSSQSLVHSNGNTYLHWYLQKPGQSPKLLIYKVSNRFSGVPDRFSGSGSGTDFTLKISRVEAEDLGVYFCSQSTHVPFTFGSGTKLEIKR | 0.85 | 0.128
reference 항-OX40L 항체 O4L (oxelumab VH/VL) (antibody, human IgG4 S228P, kappa, V domains shown) VH: EVQLLESGGGLVQPGGSLRLSCAASGFTFNSYAMSWVRQAPGKGLEWVSIISGSGGFTYYADSVKGRFTISRDNSRTTLYLQMNSLRAEDTAVYYCAKDRLVAPGTFDYWGQGALVTVSS VL: DIQMTQSPSSLSASVGDRVTITCRASQGISSWLAWYQQKPEKAPKSLIYAASSLQSGVPSRFSGSGSGTDFTLTISSLQPEDFATYYCQQYNSYPYTFGQGTKLEIKR | 1.95 | 0.293
